*1 amine or outer side, *2 acyl side, *3 side chain or, on linkers, in order; H or OH if unused. [ ]: non-standard residue; d: D form. TyrEtNAc = L-tyrosine O-ethyl acetamide, (S)-3-(4-(2-acetamidoethoxy)phenyl)-2-aminopropanoic acid, CC(=O)NCCOc1ccc(C[C@H](N[*:1])C(=O)[*:2])cc1; Trp(4-Cl)(βS-Me) = C[C@@H](c1c[nH]c2cccc(Cl)c12)[C@H](N)C(=O)O; Pro(trans-4-NH2) = O=C([C@@H]1C[C@@H](N[*:3])CN1[*:1])[*:2]; Bip(4'-COOH) = N[C@@H](Cc1ccc(-c2ccc(C(=O)O)cc2)cc1)C(=O)O; 1Nal(3S-Me) = C[C@@H](c1cccc2ccccc12)[C@H](N)C(=O)O; Phe(4-COOH) = N[C@@H](Cc1ccc(C(=O)O)cc1)C(=O)O; h3Pal(5-CN) = N#Cc1cncc(CC[C@H](N)C(=O)O)c1; Phe(4-NH2) = Nc1ccc(C[C@H](N)C(=O)O)cc1; 1Nal = N[C@@H](Cc1cccc2ccccc12)C(=O)O; hTyr = N[C@@H](CCc1ccc(O)cc1)C(=O)O; 4Pal = N[C@@H](Cc1ccncc1)C(=O)O; dDab = NCC[C@@H](N)C(=O)O; Orn = NCCC[C@H](N)C(=O)O; dNMeA = CN[C@H](C)C(=O)O; Dab = NCC[C@H](N)C(=O)O; Dap = NC[C@H](N)C(=O)O; Aib = CC(C)(N)C(=O)O
B1: SEQ ID NO: 128 (Example No. 128) (peptide)
peptide: cyclo([TyrEtNAc]W[Phe(4-COOH)]G[Pro(trans-4-NH2)][1Nal(3S-Me)]D[dNMeA]G[Bip(4'-COOH)]WS[dA][hTyr])
SMILES: CC(=O)NCCOc1ccc(C[C@@H]2NC(=O)[C@H](CCc3ccc(O)cc3)NC(=O)[C@@H](C)NC(=O)[C@H](CO)NC(=O)[C@H](Cc3c[nH]c4ccccc34)NC(=O)[C@H](Cc3ccc(-c4ccc(C(=O)O)cc4)cc3)NC(=O)CNC(=O)[C@@H](C)N(C)C(=O)[C@H](CC(=O)O)NC(=O)[C@H]([C@@H](C)c3cccc4ccccc34)NC(=O)[C@@H]3C[C@@H](N)CN3C(=O)CNC(=O)[C@H](Cc3ccc(C(=O)O)cc3)NC(=O)[C@H](Cc3c[nH]c4ccccc34)NC2=O)cc1
B2: SEQ ID NO: 133 (Example No. 133) (peptide)
peptide: cyclo([TyrEtNAc]W[Phe(4-COOH)]G[Pro(trans-4-NH2)][Trp(4-Cl)(βS-Me)]D[dNMeA]G[Bip(4'-COOH)][1Nal]S[dA][Phe(4-NH2)])
SMILES: CC(=O)NCCOc1ccc(C[C@@H]2NC(=O)[C@H](Cc3ccc(N)cc3)NC(=O)[C@@H](C)NC(=O)[C@H](CO)NC(=O)[C@H](Cc3cccc4ccccc34)NC(=O)[C@H](Cc3ccc(-c4ccc(C(=O)O)cc4)cc3)NC(=O)CNC(=O)[C@@H](C)N(C)C(=O)[C@H](CC(=O)O)NC(=O)[C@H]([C@@H](C)c3c[nH]c4cccc(Cl)c34)NC(=O)[C@@H]3C[C@@H](N)CN3C(=O)CNC(=O)[C@H](Cc3ccc(C(=O)O)cc3)NC(=O)[C@H](Cc3c[nH]c4ccccc34)NC2=O)cc1
B3: SEQ ID NO: 126 (Example No. 126) (peptide)
peptide: cyclo([TyrEtNAc]W[Phe(4-COOH)]G[Pro(trans-4-NH2)][1Nal(3S-Me)]D[dNMeA]G[Bip(4'-COOH)]WL[dDab][hTyr])
SMILES: CC(=O)NCCOc1ccc(C[C@@H]2NC(=O)[C@H](CCc3ccc(O)cc3)NC(=O)[C@@H](CCN)NC(=O)[C@H](CC(C)C)NC(=O)[C@H](Cc3c[nH]c4ccccc34)NC(=O)[C@H](Cc3ccc(-c4ccc(C(=O)O)cc4)cc3)NC(=O)CNC(=O)[C@@H](C)N(C)C(=O)[C@H](CC(=O)O)NC(=O)[C@H]([C@@H](C)c3cccc4ccccc34)NC(=O)[C@@H]3C[C@@H](N)CN3C(=O)CNC(=O)[C@H](Cc3ccc(C(=O)O)cc3)NC(=O)[C@H](Cc3c[nH]c4ccccc34)NC2=O)cc1
B4: SEQ ID NO: 127 (Example No. 127) (peptide)
peptide: cyclo([TyrEtNAc]W[Phe(4-COOH)]G[Pro(trans-4-NH2)][1Nal(3S-Me)]D[dNMeA]G[Bip(4'-COOH)]W[Orn][Aib][hTyr])
SMILES: CC(=O)NCCOc1ccc(C[C@@H]2NC(=O)[C@H](CCc3ccc(O)cc3)NC(=O)C(C)(C)NC(=O)[C@H](CCCN)NC(=O)[C@H](Cc3c[nH]c4ccccc34)NC(=O)[C@H](Cc3ccc(-c4ccc(C(=O)O)cc4)cc3)NC(=O)CNC(=O)[C@@H](C)N(C)C(=O)[C@H](CC(=O)O)NC(=O)[C@H]([C@@H](C)c3cccc4ccccc34)NC(=O)[C@@H]3C[C@@H](N)CN3C(=O)CNC(=O)[C@H](Cc3ccc(C(=O)O)cc3)NC(=O)[C@H](Cc3c[nH]c4ccccc34)NC2=O)cc1
B5: SEQ ID NO: 123 (Example No. 123) (peptide)
peptide: cyclo([TyrEtNAc]W[Phe(4-COOH)]G[Pro(trans-4-NH2)][1Nal(3S-Me)]D[dNMeA]G[Bip(4'-COOH)]WG[dDab][hTyr])
SMILES: CC(=O)NCCOc1ccc(C[C@@H]2NC(=O)[C@H](CCc3ccc(O)cc3)NC(=O)[C@@H](CCN)NC(=O)CNC(=O)[C@H](Cc3c[nH]c4ccccc34)NC(=O)[C@H](Cc3ccc(-c4ccc(C(=O)O)cc4)cc3)NC(=O)CNC(=O)[C@@H](C)N(C)C(=O)[C@H](CC(=O)O)NC(=O)[C@H]([C@@H](C)c3cccc4ccccc34)NC(=O)[C@@H]3C[C@@H](N)CN3C(=O)CNC(=O)[C@H](Cc3ccc(C(=O)O)cc3)NC(=O)[C@H](Cc3c[nH]c4ccccc34)NC2=O)cc1
B6: SEQ ID NO: 130 (Example No. 130) (peptide)
peptide: cyclo([TyrEtNAc]W[Phe(4-COOH)]G[Pro(trans-4-NH2)][Trp(4-Cl)(βS-Me)]D[dNMeA]G[Bip(4'-COOH)][1Nal][Dap][Aib][h3Pal(5-CN)])
SMILES: CC(=O)NCCOc1ccc(C[C@@H]2NC(=O)[C@H](CCc3cncc(C#N)c3)NC(=O)C(C)(C)NC(=O)[C@H](CN)NC(=O)[C@H](Cc3cccc4ccccc34)NC(=O)[C@H](Cc3ccc(-c4ccc(C(=O)O)cc4)cc3)NC(=O)CNC(=O)[C@@H](C)N(C)C(=O)[C@H](CC(=O)O)NC(=O)[C@H]([C@@H](C)c3c[nH]c4cccc(Cl)c34)NC(=O)[C@@H]3C[C@@H](N)CN3C(=O)CNC(=O)[C@H](Cc3ccc(C(=O)O)cc3)NC(=O)[C@H](Cc3c[nH]c4ccccc34)NC2=O)cc1
B7: SEQ ID NO: 135 (Example No. 135) (peptide)
peptide: cyclo([TyrEtNAc]W[Phe(4-COOH)]G[Pro(trans-4-NH2)][Trp(4-Cl)(βS-Me)]D[dNMeA]G[Bip(4'-COOH)][4Pal]L[dA][hTyr])
SMILES: CC(=O)NCCOc1ccc(C[C@@H]2NC(=O)[C@H](CCc3ccc(O)cc3)NC(=O)[C@@H](C)NC(=O)[C@H](CC(C)C)NC(=O)[C@H](Cc3ccncc3)NC(=O)[C@H](Cc3ccc(-c4ccc(C(=O)O)cc4)cc3)NC(=O)CNC(=O)[C@@H](C)N(C)C(=O)[C@H](CC(=O)O)NC(=O)[C@H]([C@@H](C)c3c[nH]c4cccc(Cl)c34)NC(=O)[C@@H]3C[C@@H](N)CN3C(=O)CNC(=O)[C@H](Cc3ccc(C(=O)O)cc3)NC(=O)[C@H](Cc3c[nH]c4ccccc34)NC2=O)cc1
B8: SEQ ID NO: 131 (Example No. 131) (peptide)
peptide: cyclo([TyrEtNAc]W[Phe(4-COOH)]G[Pro(trans-4-NH2)][Trp(4-Cl)(βS-Me)]D[dNMeA]G[Bip(4'-COOH)][1Nal]L[dA][hTyr])
SMILES: CC(=O)NCCOc1ccc(C[C@@H]2NC(=O)[C@H](CCc3ccc(O)cc3)NC(=O)[C@@H](C)NC(=O)[C@H](CC(C)C)NC(=O)[C@H](Cc3cccc4ccccc34)NC(=O)[C@H](Cc3ccc(-c4ccc(C(=O)O)cc4)cc3)NC(=O)CNC(=O)[C@@H](C)N(C)C(=O)[C@H](CC(=O)O)NC(=O)[C@H]([C@@H](C)c3c[nH]c4cccc(Cl)c34)NC(=O)[C@@H]3C[C@@H](N)CN3C(=O)CNC(=O)[C@H](Cc3ccc(C(=O)O)cc3)NC(=O)[C@H](Cc3c[nH]c4ccccc34)NC2=O)cc1
B9: SEQ ID NO: 124 (Example No. 124) (peptide)
peptide: cyclo([TyrEtNAc]W[Phe(4-COOH)]G[Pro(trans-4-NH2)][1Nal(3S-Me)]D[dNMeA]G[Bip(4'-COOH)]WL[dA]A)
SMILES: CC(=O)NCCOc1ccc(C[C@@H]2NC(=O)[C@H](C)NC(=O)[C@@H](C)NC(=O)[C@H](CC(C)C)NC(=O)[C@H](Cc3c[nH]c4ccccc34)NC(=O)[C@H](Cc3ccc(-c4ccc(C(=O)O)cc4)cc3)NC(=O)CNC(=O)[C@@H](C)N(C)C(=O)[C@H](CC(=O)O)NC(=O)[C@H]([C@@H](C)c3cccc4ccccc34)NC(=O)[C@@H]3C[C@@H](N)CN3C(=O)CNC(=O)[C@H](Cc3ccc(C(=O)O)cc3)NC(=O)[C@H](Cc3c[nH]c4ccccc34)NC2=O)cc1
B10: SEQ ID NO: 132 (Example No. 132) (peptide)
peptide: cyclo([TyrEtNAc]W[Phe(4-COOH)]G[Pro(trans-4-NH2)][Trp(4-Cl)(βS-Me)]D[dNMeA]G[Bip(4'-COOH)][1Nal][Orn][Aib]G)
SMILES: CC(=O)NCCOc1ccc(C[C@@H]2NC(=O)CNC(=O)C(C)(C)NC(=O)[C@H](CCCN)NC(=O)[C@H](Cc3cccc4ccccc34)NC(=O)[C@H](Cc3ccc(-c4ccc(C(=O)O)cc4)cc3)NC(=O)CNC(=O)[C@@H](C)N(C)C(=O)[C@H](CC(=O)O)NC(=O)[C@H]([C@@H](C)c3c[nH]c4cccc(Cl)c34)NC(=O)[C@@H]3C[C@@H](N)CN3C(=O)CNC(=O)[C@H](Cc3ccc(C(=O)O)cc3)NC(=O)[C@H](Cc3c[nH]c4ccccc34)NC2=O)cc1
B11: SEQ ID NO: 125 (Example No. 125) (peptide)
peptide: cyclo([TyrEtNAc]W[Phe(4-COOH)]G[Pro(trans-4-NH2)][1Nal(3S-Me)]D[dNMeA]G[Bip(4'-COOH)]WL[dA][hTyr])
SMILES: CC(=O)NCCOc1ccc(C[C@@H]2NC(=O)[C@H](CCc3ccc(O)cc3)NC(=O)[C@@H](C)NC(=O)[C@H](CC(C)C)NC(=O)[C@H](Cc3c[nH]c4ccccc34)NC(=O)[C@H](Cc3ccc(-c4ccc(C(=O)O)cc4)cc3)NC(=O)CNC(=O)[C@@H](C)N(C)C(=O)[C@H](CC(=O)O)NC(=O)[C@H]([C@@H](C)c3cccc4ccccc34)NC(=O)[C@@H]3C[C@@H](N)CN3C(=O)CNC(=O)[C@H](Cc3ccc(C(=O)O)cc3)NC(=O)[C@H](Cc3c[nH]c4ccccc34)NC2=O)cc1
B12: SEQ ID NO: 134 (Example No. 134) (peptide)
peptide: cyclo([TyrEtNAc]W[Phe(4-COOH)]G[Pro(trans-4-NH2)][Trp(4-Cl)(βS-Me)]D[dNMeA]G[Bip(4'-COOH)][4Pal][Dab][dA][hTyr])
SMILES: CC(=O)NCCOc1ccc(C[C@@H]2NC(=O)[C@H](CCc3ccc(O)cc3)NC(=O)[C@@H](C)NC(=O)[C@H](CCN)NC(=O)[C@H](Cc3ccncc3)NC(=O)[C@H](Cc3ccc(-c4ccc(C(=O)O)cc4)cc3)NC(=O)CNC(=O)[C@@H](C)N(C)C(=O)[C@H](CC(=O)O)NC(=O)[C@H]([C@@H](C)c3c[nH]c4cccc(Cl)c34)NC(=O)[C@@H]3C[C@@H](N)CN3C(=O)CNC(=O)[C@H](Cc3ccc(C(=O)O)cc3)NC(=O)[C@H](Cc3c[nH]c4ccccc34)NC2=O)cc1
B13: SEQ ID NO: 129 (Example No. 129) (peptide)
peptide: cyclo([TyrEtNAc]W[Phe(4-COOH)]G[Pro(trans-4-NH2)][1Nal(3S-Me)]N[dNMeA]G[Bip(4'-COOH)]W[Dap][dA][hTyr])
SMILES: CC(=O)NCCOc1ccc(C[C@@H]2NC(=O)[C@H](CCc3ccc(O)cc3)NC(=O)[C@@H](C)NC(=O)[C@H](CN)NC(=O)[C@H](Cc3c[nH]c4ccccc34)NC(=O)[C@H](Cc3ccc(-c4ccc(C(=O)O)cc4)cc3)NC(=O)CNC(=O)[C@@H](C)N(C)C(=O)[C@H](CC(N)=O)NC(=O)[C@H]([C@@H](C)c3cccc4ccccc34)NC(=O)[C@@H]3C[C@@H](N)CN3C(=O)CNC(=O)[C@H](Cc3ccc(C(=O)O)cc3)NC(=O)[C@H](Cc3c[nH]c4ccccc34)NC2=O)cc1

target: Recombinant human IL-1β (BioLegend 579404) (human, UniProt P01584 117-269); test: cell-based or functional assay

Binder	MRC5 IC50 [pM]
B1	90
B2	766
B3	370
B4	432
B5	45.7
B6	114
B7	310
B8	49.8
B9	636
B10	370
B11	64
B12	378
B13	82.8

Source: patent publication US20230406885A1, “CYCLIC PEPTIDES FOR TRAPPING INTERLEUKIN-1 BETA” (MERCK SHARP & DOHME LLC, priority 2022, published 2023)
